Source: PMC3864901, “A Conserved Sequence Extending Motif III of the Motor Domain in the Snf2-Family DNA Translocase Rad54 Is Critical for ATPase Activity” (PLoS ONE, 2013)

B1: Rad54 (Saccharomyces cerevisiae S288C) (protein)
chain: MARRRLPDRPPNGIGAGERPRLVPRPINVQDSVNRLTKPFRVPYKNTHIPPAAGRIATGSDNIVGGRSLRKRSATVCYSGLDINADEAEYNSQDISFSQLTKRRKDALSAQRLAKDPTRLSHIQYTLRRSFTVPIKGYVQRHSLPLTLGMKKKITPEPRPLHDPTDEFAIVLYDPSVDGEMIVHDTSMDNKEEESKKMIKSTQEKDNINKEKNSQEERPTQRIGRHPALMTNGVRNKPLRELLGDSENSAENKKKFASVPVVIDPKLAKILRPHQVEGVRFLYRCVTGLVMKDYLEAEAFNTSSEDPLKSDEKALTESQKTEQNNRGAYGCIMADEMGLGKTLQCIALMWTLLRQGPQGKRLIDKCIIVCPSSLVNNWANELIKWLGPNTLTPLAVDGKKSSMGGGNTTVSQAIHAWAQAQGRNIVKPVLIISYETLRRNVDQLKNCNVGLMLADEGHRLKNGDSLTFTALDSISCPRRVILSGTPIQNDLSEYFALLSFSNPGLLGSRAEFRKNFENPILRGRDADATDKEITKGEAQLQKLSTIVSKFIIRRTNDILAKYLPCKYEHVIFVNLKPLQNELYNKLIKSREVKKVVKGVGGSQPLRAIGILKKLCNHPNLLNFEDEFDDEDDLELPDDYNMPGSKARDVQTKYSAKFSILERFLHKIKTESDDKIVLISNYTQTLDLIEKMCRYKHYSAVRLDGTMSINKRQKLVDRFNDPEGQEFIFLLSSKAGGCGINLIGANRLILMDPDWNPAADQQALARVWRDGQKKDCFIYRFISTGTIEEKIFQRQSMKMSLSSCVVDAKEDVERLFSSDNLRQLFQKNENTICETHETYHCKRCNAQGKQLKRAPAMLYGDATTWNHLNHDALEKTNDHLLKNEHHYNDISFAFQYISH
notes: wild-type yeast Rad54, overexpressed in S. cerevisiae and purified as in earlier work

Key:
[1] = tested on: Rad54 (Saccharomyces cerevisiae); test: EMSA (glutaraldehyde-fixed, agarose); conditions: 13 mM Mg acetate, 25 mM TEA-Ac pH 7.5, 13 mM Mg acetate, 1.8 mM DTT, 100 ug/ml BSA, 11.25% glycerol, 113 mM NaCl, 30 uM bp pUC19, 30 C 15 min, then 0.25% glutaraldehyde 15 min …
[2] = substrate: Nc1ncnc2c1ncn2[C@@H]1O[C@H](COP(=O)(O)OP(=O)(O)OP(=O)(O)O)[C@@H](O)[C@H]1O; test: NADH-coupled ATPase assay, Michaelis-Menten fit; format: biochemical, Saccharomyces cerevisiae; conditions: 1.5 uM pUC19 dsDNA, 2.5 mM free Mg(OAc)2, 25 mM HEPES pH 7.5, 30 C, 5 nM Rad54
Excerpt: NADH-coupled ATPase assay, Michaelis-Menten fit on Rad54 | Michaelis-Menten parameters of Rad54 and Rad54-2A as determined from the ATP titrations in B

| Molecule | binding (bp per Rad54 monomer (all DNA bound)) ([1]; 5 mM ATP + regeneration system) | binding (bp per Rad54 monomer (all DNA bound)) ([1]; no nucleotide) | Km [2] | kcat [2] |
| --- | --- | --- | --- | --- |
| pUC19 supercoiled dsDNA | 36 | 36 | – | – |
| B1 | – | – | 170 ± 40 µM | 1,219 ± 45 min-1 |
